Laboratory results: the supplement of paper PMC10567573

B1: HMOX1 (parent)
chain: YHIYVALEEEIERNKESPVFAPVY
B2: IFRG15 (parent)
chain: INRADYCPECYPDNPANRSLVLPW

Variants of: B1
Assay: protein stability index of a GFP-peptide fusion (GPS, HEK-293T) (PSI 1-6); higher = more stable
Conditions: c terminus: a fixed tail appended
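Also: lentivirally expressed fusions sorted by FACS into six bins by GFP to DsRed ratio, PSI derived from sequencing read proportions per bin multiplied by bin number.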

Row | Variant | protein stability index
1 | YHIYVALEEEIERNKESPVFAPVR [Y24R] | 3.01
2 | YHIYVALEEEIERNKESPVFAPVS [Y24S] | 2.84
3 | YHIYVALEEEIERNKESPVFAPVV [Y24V] | 2.51
4 | YHIYVALEEEIERNKESPVFAPVT [Y24T] | 2.96
5 | YHIYVALEEEIERNKESPVFAPVW [Y24W] | 1.98
6 | YHIYVALEEEIERNKESPVFAPVQ [Y24Q] | 3.09

Variants of: B2
Assay: as above
Conditions: c terminus: a fixed tail appended

Row | Variant | protein stability index
7 | IPRADYCPECYPDNPANRSLVLPW [N2P] | 2.92
8 | IRRADYCPECYPDNPANRSLVLPW [N2R] | 1.26
9 | IARADYCPECYPDNPANRSLVLPW [N2A] | 1.65
10 | IIRADYCPECYPDNPANRSLVLPW [N2I] | 1.7
11 | IDRADYCPECYPDNPANRSLVLPW [N2D] | 2.64
12 | ITRADYCPECYPDNPANRSLVLPW [N2T] | 1.78
13 | IVRADYCPECYPDNPANRSLVLPW [N2V] | 1.91
14 | IMRADYCPECYPDNPANRSLVLPW [N2M] | 1.88
15 | IGRADYCPECYPDNPANRSLVLPW [N2G] | 2.15
16 | IHRADYCPECYPDNPANRSLVLPW [N2H] | 1.84
17 | IKRADYCPECYPDNPANRSLVLPW [N2K] | 2.29
18 | IWRADYCPECYPDNPANRSLVLPW [N2W] | 1.61
19 | IFRADYCPECYPDNPANRSLVLPW [N2F] | 1.55
20 | ILRADYCPECYPDNPANRSLVLPW [N2L] | 1.79
21 | IERADYCPECYPDNPANRSLVLPW [N2E] | 2.11
22 | ISRADYCPECYPDNPANRSLVLPW [N2S] | 1.82
23 | IQRADYCPECYPDNPANRSLVLPW [N2Q] | 2.03
24 | IYRADYCPECYPDNPANRSLVLPW [N2Y] | 1.7
25 | ICRADYCPECYPDNPANRSLVLPW [N2C] | 3.06
26 | INRCDYCPECYPDNPANRSLVLPW [A4C] | 1.78
27 | INREDYCPECYPDNPANRSLVLPW [A4E] | 2.48
28 | INRIDYCPECYPDNPANRSLVLPW [A4I] | 2.66

Row | Variant | protein stability index
29 | INRFDYCPECYPDNPANRSLVLPW [A4F] | 1.93
30 | INRYDYCPECYPDNPANRSLVLPW [A4Y] | 2.63
31 | INRVDYCPECYPDNPANRSLVLPW [A4V] | 1.83
32 | INRKDYCPECYPDNPANRSLVLPW [A4K] | 2.16
33 | INRSDYCPECYPDNPANRSLVLPW [A4S] | 2.28
34 | INRGDYCPECYPDNPANRSLVLPW [A4G] | 2.55
35 | INRRDYCPECYPDNPANRSLVLPW [A4R] | 1.83
36 | INRDDYCPECYPDNPANRSLVLPW [A4D] | 1.95
37 | INRQDYCPECYPDNPANRSLVLPW [A4Q] | 2.28
38 | INRMDYCPECYPDNPANRSLVLPW [A4M] | 1.51
39 | INRTDYCPECYPDNPANRSLVLPW [A4T] | 2.1
40 | INRPDYCPECYPDNPANRSLVLPW [A4P] | 2.47
41 | INRNDYCPECYPDNPANRSLVLPW [A4N] | 2.2
42 | INRLDYCPECYPDNPANRSLVLPW [A4L] | 2.09
43 | INRHDYCPECYPDNPANRSLVLPW [A4H] | 1.65
44 | INRWDYCPECYPDNPANRSLVLPW [A4W] | 1.68
45 | ENRADYCPECYPDNPANRSLVLPW [I1E] | 1.93
46 | ANRADYCPECYPDNPANRSLVLPW [I1A] | 2.15
47 | TNRADYCPECYPDNPANRSLVLPW [I1T] | 1.74
48 | CNRADYCPECYPDNPANRSLVLPW [I1C] | 2.53
49 | PNRADYCPECYPDNPANRSLVLPW [I1P] | 2.21
50 | KNRADYCPECYPDNPANRSLVLPW [I1K] | 2.42

Row | Variant | protein stability index
51 | YNRADYCPECYPDNPANRSLVLPW [I1Y] | 1.49
52 | FNRADYCPECYPDNPANRSLVLPW [I1F] | 2.34
53 | QNRADYCPECYPDNPANRSLVLPW [I1Q] | 2.26
54 | MNRADYCPECYPDNPANRSLVLPW [I1M] | 2.38
55 | LNRADYCPECYPDNPANRSLVLPW [I1L] | 2.29
56 | WNRADYCPECYPDNPANRSLVLPW [I1W] | 1.33
57 | GNRADYCPECYPDNPANRSLVLPW [I1G] | 2.05
58 | NNRADYCPECYPDNPANRSLVLPW [I1N] | 3.18
59 | RNRADYCPECYPDNPANRSLVLPW [I1R] | 2.05
60 | DNRADYCPECYPDNPANRSLVLPW [I1D] | 2.75
61 | VNRADYCPECYPDNPANRSLVLPW [I1V] | 1.92
62 | HNRADYCPECYPDNPANRSLVLPW [I1H] | 2.44
63 | SNRADYCPECYPDNPANRSLVLPW [I1S] | 2.14
64 | INKADYCPECYPDNPANRSLVLPW [R3K] | 2.39
65 | INNADYCPECYPDNPANRSLVLPW [R3N] | 2.36
66 | INQADYCPECYPDNPANRSLVLPW [R3Q] | 2.32
67 | INSADYCPECYPDNPANRSLVLPW [R3S] | 2.2
68 | INCADYCPECYPDNPANRSLVLPW [R3C] | 1.66
69 | INLADYCPECYPDNPANRSLVLPW [R3L] | 2.14
70 | INAADYCPECYPDNPANRSLVLPW [R3A] | 2.42
71 | INVADYCPECYPDNPANRSLVLPW [R3V] | 1.74
72 | INDADYCPECYPDNPANRSLVLPW [R3D] | 2.59

Row | Variant | protein stability index
73 | INTADYCPECYPDNPANRSLVLPW [R3T] | 2.71
74 | INIADYCPECYPDNPANRSLVLPW [R3I] | 1.54
75 | INPADYCPECYPDNPANRSLVLPW [R3P] | 2.42
76 | INMADYCPECYPDNPANRSLVLPW [R3M] | 1.91
77 | INEADYCPECYPDNPANRSLVLPW [R3E] | 2.42
78 | INFADYCPECYPDNPANRSLVLPW [R3F] | 2.12
79 | INWADYCPECYPDNPANRSLVLPW [R3W] | 1.35
80 | INYADYCPECYPDNPANRSLVLPW [R3Y] | 1.9
81 | INHADYCPECYPDNPANRSLVLPW [R3H] | 2.39
82 | INGADYCPECYPDNPANRSLVLPW [R3G] | 2.65
83 | INRACYCPECYPDNPANRSLVLPW [D5C] | 1.92
84 | INRAAYCPECYPDNPANRSLVLPW [D5A] | 1.78
85 | INRAHYCPECYPDNPANRSLVLPW [D5H] | 2.09
86 | INRAKYCPECYPDNPANRSLVLPW [D5K] | 1.4
87 | INRAFYCPECYPDNPANRSLVLPW [D5F] | 2.03
88 | INRAGYCPECYPDNPANRSLVLPW [D5G] | 1.91
89 | INRALYCPECYPDNPANRSLVLPW [D5L] | 1.6
90 | INRAIYCPECYPDNPANRSLVLPW [D5I] | 1.99
91 | INRAEYCPECYPDNPANRSLVLPW [D5E] | 1.96
92 | INRAMYCPECYPDNPANRSLVLPW [D5M] | 1.95
93 | INRAPYCPECYPDNPANRSLVLPW [D5P] | 1.91
94 | INRANYCPECYPDNPANRSLVLPW [D5N] | 1.88
